Data reported in patent US20260258115A1 (MAPP BIOPHARMACEUTICAL, published 2026).

Legend:
[1] = biological target: RSV fusion glycoprotein (RSV F) on RSV-A2 virus (respiratory syncytial virus, UniProt P03420 26-574); assay: cell-based or functional assay
[2] = biological target: RSV prefusion F (preF), DS-Cav1 (respiratory syncytial virus, UniProt P03420 26-513); assay: BLI, IgG on sensor, 100 nM antigen
[3] = biological target: RSV postfusion F (postF), F deltaFP (respiratory syncytial virus, UniProt P03420 26-513); assay: BLI, IgG on sensor, 100 nM antigen
[4] = biological target: T1, RSV postfusion F (postF), subtype A (respiratory syncytial virus subtype A, UniProt P03420 26-513); assay: BLI, IgG
T1 construct: also called Postfusion subtype A; F deltaFP

[5] = biological target: T2, RSV prefusion F (preF), subtype B (respiratory syncytial virus subtype B); assay: BLI, IgG
T2 construct: also called Prefusion subtype B

[6] = biological target: T3, RSV postfusion F (postF), subtype B (respiratory syncytial virus subtype B); assay: BLI, IgG
T3 construct: also called Postfusion subtype B

[7] = biological target: RSV F on RSV subtype A virus (mKate-RSV A2) (respiratory syncytial virus A2, UniProt P03420 26-574); assay: cell-based or functional assay
[8] = biological target: RSV F on RSV subtype B virus (mKate-RSV B 18537) (respiratory syncytial virus B 18537, UniProt P13843 26-574); assay: cell-based or functional assay

B1: ADI-41370 (antibody, V domains shown)
VH: EVQLVESGGGLVKPGGSLRLSCAASGFTFSGFSMNWVRQAPGKGLEWVSSISSTSRYIYYADSVQGRFTISRDNAKNSLYLQMNSLRAEDTAVYYCARDPGGSASFVPYYYGMDVWGQGATVTVSS
VL: SYELIQPPSVSVSPGQTARITCSGDALPNQYVYWYQKKPGQAPVLVIYKDTEGPLGIPERFSGSSSGTTVTLTISGVQAEDEADYYCQSADSSGTYPYVVFGGGTKLTVL
notes: IgG1; also called Ab 667
B1 was tested, and the “Neutralization IC50 (RSV subtype A)” value [1] was > 25 µg/mL, the Kd [2] was 5.59 nM and the Kd [3] was 1.64 nM.

B2: ADI-41372 (antibody, V domains shown)
VH: QVQLVQSGAEVKKPGSSVKVSCKASGGISSSYAISWVRQAPGQGLEWMGGIIPIFGTTNYAQKFQGRVTITADKSTSTVYMELSSLRSEDSAVYFCARAYCSGGTCYGGADYWGQGTLVTVSS
VL: SYELTQPPSVSVSPGQTARITCSGDVLPKQYAYWYQQKLGQAPLLVMYKDTERPSGIPERFSGSSSVTAVTLTISGVQAEDEADYYCQSADSTQELFGGGTKLTVL
notes: IgG1; also called Ab 669
With B2 the “Neutralization IC50 (RSV subtype A)” value [1] was > 25 µg/mL, the Kd [2] was 2.48 nM and the Kd [3] was 0.425 nM.

B3: ADI-41354 (antibody, V domains shown)
VH: EVQLLESGGGLVQPGGSLRLSCAASGFTFSSYAMSWVRQAPGKGLEWVSGISGSGGTTYYADSVKGRFTISRDNSKNTLYLQMNSLRAEDTAVYYCAKDSPVNINCGGDCDVAYWGQGTLVTVSS
VL: EIVMTQSPSSLSASVGDTVTITCQASQDISYSLNWYQQKPGKAPNLLIFDASHLQTGVPSRFSGGGDGKHFSFTISSLQPEDVATYYCQQYDSLMYTFGQGTKVEIK
notes: IgG1; also called Ab 651
B3 was tested, and the “Neutralization IC50 (RSV subtype A)” value [1] was > 25 µg/mL, the Kd [2] was 0.771 nM and the Kd [3] was 0.429 nM.

B4: ADI-41355 (antibody, V domains shown)
VH: EVQLVESGGGLVKPGGSLRLSCTASGFTFSDYYMNWIRQAPGKGLEWVSYISGDGNTIYYTDSVKGRFTISRDNAKNSLFLQMNSLRGEDSAVYYCAGPVRGYTYGIFDYWGQGALVTVSS
VL: YYVLTQPPSVSVAPGQAARITCGGNNIGSRSVNWYQQKPGQAPVVVIYGDSVRPSGIPERFSGSNSGNTATLTFSRVEAGDEADYYCQVWETNSDHPVVFGGGTKVTVL
notes: IgG1
In the case of B4, the “Neutralization IC50 (RSV subtype A)” value [1] is reported as > 25 µg/mL, the Kd [2] is reported as 3.84 nM and the Kd [3] is reported as 1.18 nM.

B5: ADI-41367 (antibody, V domains shown)
VH: QVQLVQSGAAVKRPGASVKVSCKASGYTFSTNALHWVRQAPGQSLEWMGWINTDNGIPKYSERFHGRVTFTRDTSASTVYMDLSGLRSGDTAVYYCARDGSSGHWLGLSVLDNWGQGTLVTVSS
VL: QSALIQPASVSGSPGQSITISCTGTSDDVGAYNYVSWYQQYPNKAPKLVIYEVSHRPSGVSNRFSGSKSGNTASLTISGLQAEDEADYYCSSYTRSATPYVFGTGTKLTVL
notes: IgG1
With B5 the “Neutralization IC50 (RSV subtype A)” value [1] was > 25 µg/mL, the Kd [2] was 17.6 nM and the Kd [3] was 4.72 nM.

B6: ADI-14365 (antibody, V domains shown)
VH: QVQLVQSGAEVKKPGASVKVSCKVSGYTLTKLSMHWVRQAPGKGLEWMGFFDPEDGDTLYAQKFQGRVTMTEDTSSDTPYMELRSLRSEDTAVYYCASPAAAGQFDYWGQGTLVTVSS
VL: DIVMTQSPSSLSASVGDRVTITCRASQFISSYLHWYQQKTGKAPKLLIYAASSLQSGVPSRFSGSGSGTDFTLTISSLQPEDFATYYCQQSYNTPRTFGQGTKLEIK
notes: full-length IgG; also called Ab 33
For B6, the Kd [4] was 10.3 nM, the Kd [5] was 0.962 nM and the Kd [6] was 22.3 nM. For the same binder, the “Neut IC50 subtype A” value [7] was 0.8 µg/mL and the “Neut IC50 subtype B” value [8] was 0.49 µg/mL.

B7: ADI-41374 (antibody, V domains shown)
VH: QVQLVQSGAEVKKPGSSVKVSCKASGGTFSNHAIDWVRQAPGQGLEWMGRIIPMVGLATYTRKFQGRVTISVDKSTSTAYMELSSLISDDTAVYYCARRTPEMAWGYWGQGTTVTVSS
VL: DIVMTQTPSSLSASVGDRVTITCQASQDIRYYVNWYQQKPGKAPKLLIYDASTLETGVPSRFSGRGSGTDFTLIISSLQPEDIATYYCQQYGDLPTFGQGTRLEIK
notes: IgG1; also called Ab 671
B7 was tested, and the “Neutralization IC50 (RSV subtype A)” value [1] was > 25 µg/mL, the Kd [2] was 1.39 nM and the Kd [3] was 0.369 nM.

B8: ADI-41376 (antibody, V domains shown)
VH: QVQLQESGGGVVQPGRSLRLSCAASGFTFSSYAMHWVRQAPGKGLEWVAVISFDGTANKYYADSVKGRFAISRDNSKNTLYLQMNSLRAEDTAVYYCAKDDAIYSGGWVGDAFDLWGQGTMVTVSS
VL: EIVLTQSPATLSVSPGERATLSCRASQGVNSNLAWYQQKPGQAPRLLMYGASTRATGIPARFSGSGSETEFTLTISSLQSEDFAVYYCQQYNNWPRTFGQGTKVDIK
notes: IgG1; also called Ab 673
B8 was tested, and the “Neutralization IC50 (RSV subtype A)” value [1] was > 25 µg/mL, the Kd [2] was 4.15 nM and the Kd [3] was 0.705 nM.

B9: ADI-41375 (antibody, V domains shown)
VH: QVQLVQSGGGVVQPGRSLRLSCATSGFTFSDYAIHWVRQAPGKGLEWVAVISYDGSHKYYGDSVKGRFTISRDNSKNTLYLQMNSLRPEDTAVYYCARSRSGSYYSSAIDNWGQGTLVTVSS
VL: DIQMTQSPSSLSASVGDRVTIACRASQGISSALAWYRQRPGKAPELLIYDASTLESGVPSRFSGYGAGTDFTLTISSLQPEDFATYYCQQFNSYPSITFGQGTKVEIK
notes: IgG1
With B9 the “Neutralization IC50 (RSV subtype A)” value [1] was > 25 µg/mL, the Kd [2] was 2.96 nM and the Kd [3] was 1.02 nM.

B10: ADI-41365 (antibody, V domains shown)
VH: EVQLVESGGGLVKPGGSLRLSCATSGFTFSDYYMTWIRQAPGKGLEWVSYISSSGGYTNYADSVRGRFTISRDNAKRSLYLQMNSLRAEDTAVYYCARVEFSSGDVPSLFDSWGQGTLVTVSS
VL: QSVLTQPPSVSGAPGQRVTISCTGSSSNLGAGYHVHWYQQFPGTAPKPLIYGNTNRPSGVPDRFSGSKSGTSASLAITGVQAEDEADYYCQSYDYSLSGWVFGGGTKLTVL
notes: IgG1
For B10, the “Neutralization IC50 (RSV subtype A)” value [1] was > 25 µg/mL, the Kd [2] was 2.87 nM and the Kd [3] was 2.22 nM.

B11: ADI-41373 (antibody, V domains shown)
VH: QVTLKESGGGLVKPGGSLRLSCAASGFTFSDYFMTWIRQAPGKGLEWVSYISSNSGYTKYAEDVKGRFSISRDNAKKTLFLQLNSLSAEDTAVYYCARVEFSSGDVPSLFDLWGQGTLVTVSS
VL: QSVLTQPPSVSGAPGQRVTISCTGSSSNIGAGYHVHWYQQLPGTAPKVLIHGNNNRPSGVPDRFSGSRSGTSASLAITGLQAEDEADYYCQSYDFSLSGWVFGGGTKLTVL
notes: IgG1; also called Ab 670
In the case of B11, the “Neutralization IC50 (RSV subtype A)” value [1] is reported as > 25 µg/mL, the Kd [2] is reported as 3.71 nM and the Kd [3] is reported as 1.18 nM.

B12: ADI-41368 (antibody, V domains shown)
VH: EVQLVESGGGVVQPGRSLRLSCAASGFIFRNYGMHWVRQAPGKGLEWVAGTSFEGRNKDYGHSVKGRFTISRDNSKDTLYLQMNSLRPEDTAVYSCAKGSSLQWSHLDWYFDLWGRGTLVTVSS
VL: DIVMTQSPSTLSASVGDRVTITCRASQSFSSWLAWYQQKPGKAPNLLIYDASTLESGVPSRFSGSGSGTEFTLTISSLQPDDFATYYCQQERTFGQGTKVEIK
notes: IgG1; also called Ab 665
For B12, the “Neutralization IC50 (RSV subtype A)” value [1] was > 25 µg/mL, the Kd [2] was 3.08 nM and the Kd [3] was 0.878 nM.

B13: ADI-41360 (antibody, V domains shown)
VH: EVQLVESGGGLVQPGGSLRLSCAASGLTFSRYSMNWVRQAPGKGLEWVSYISSTGRRIQYADSVKGRFTISRDDGKNSLYLQMNSLRAEDTAVYYCARDPLNYHDNTAYWSYWGQGTLVTVSS
VL: NFMLTQPHSVSESPGKTVTISCTRSSGSIASNYVQWYQQRPGSAPTTVIYEDNQRPSGVPDRFSGSIDSSSNSASLTISGLKTEDEADYYCQSYDSSNPLVFGGGTKLTVL
notes: IgG1; also called Ab 657
With B13 the “Neutralization IC50 (RSV subtype A)” value [1] was > 25 µg/mL, the Kd [2] was 2.46 nM and the Kd [3] was 0.358 nM.

B14: ADI-41369 (antibody, V domains shown)
VH: EVQLVQSGGGVVQPGRSLRLSCAASGFTFSSYGMHWVRQAPGKGLEWVAVISHDGNNKYYGDSVKGRFTISRDNSKNTLHLQMNSLRGDDTAVYYCGKDPLKGDCSGGSCYQRIDYWGQGTLVTVSS
VL: NFMLTQPHSVSESPGKTVTISCTGSSGRIASNYVQWYQQRPGSAPATVIYDDNQRPSGVPDRFSGSIDSSSNSASLTISGLKTEDEADYYCQSYDRSNHVIFGGGTKLTVL
notes: IgG1; also called Ab 666
In the case of B14, the “Neutralization IC50 (RSV subtype A)” value [1] is reported as > 25 µg/mL, the Kd [2] is reported as 0.685 nM and the Kd [3] is reported as 0.308 nM.

B15: ADI-41366 (antibody, V domains shown)
VH: QVQLVQSGAEVKKPGESLKISCKASGYSSTTYWIGWVRQISGKGLEWMGIIYPGDSDTRYSPSFQGQVTISADRSTKTAYLQWSSLKASDTAMYYCGTSGFGVATPFDYWGQGTLVTVSS
VL: NFMLTQPHSVSESPGKTVTISCTRTSGSIAGNYVHWYQQRPGSAPTTVIYEDNQRPSGVPDRFSGSIDRSSNSASLTISGLKTEDEADYYCQSYASGIHGVFGGGTKVTVL
notes: IgG1
For B15, the “Neutralization IC50 (RSV subtype A)” value [1] was > 25 µg/mL, the Kd [2] was 1.79 nM and the Kd [3] was 0.278 nM.

B16: ADI-22759 (antibody, V domains shown)
VH: EVQLLESGGGLVKPGGSLRLSCAASGFSFSSYTMNWVRQAPGKGLEWVSSITGGSSYIDYAGSLKGRFTISRDNAKNSLYLQMNSLRVEDTAVYYCARDFPNIAVGGKTLDYWGQGTLVTVSS
VL: QPVLTQPPSVSGAPGQRVTISCTGSSSNIGAGYDVHWFQQLPGTAPKLLIYVNNNRPSGVPDRFSGSKSGTSASLAITGLQAEDEADYYCQSYDRLSAVVFGGGTKVTVL
notes: full-length IgG
B16 was tested, and the Kd [4] was 25.3 nM, the Kd [5] was 0.353 nM and the Kd [6] was 10.1 nM. The “Neut IC50 subtype A” value [7] was 0.08 µg/mL and the “Neut IC50 subtype B” value [8] was 0.2 µg/mL.

B17: ADI-41371 (antibody, V domains shown)
VH: QVQLQESGPRLVKPSQTLSLTCTVSGGSITTGEHYWSWIRQSPGRGLEWIGYISYSGSTYYNPSLKSRVTISVDTSKTRISLNLRSVTAADSAVYYCARDQEDSDYIWGSSRVFDIWGQGTMVTVSS
VL: ETTLTQSPGTLSLSPGERATLSCRASQNVGNNYLAWYQQKPGQAPRVLIQDASTRATGIPDRFSGSGSGTDFTLTISRLEPEDFAVYHCQQYGSAPWTFGQGTKVEIK
notes: IgG1; also called Ab 668
In the case of B17, the “Neutralization IC50 (RSV subtype A)” value [1] is reported as > 25 µg/mL, the Kd [2] is reported as 2.96 nM and the Kd [3] is reported as 0.543 nM.
